Target: T1, hYSK1 on the ProtoArray Human Protein Microarray (human, UniProt O00506 1-426)
T1 construct: hYSK1, human Ste20 family serine/threonine protein kinase; one of 1,800 recombinant human proteins on the array; also called human analog of YSK1; source: bought: ProtoArray Human Protein Microarray (v.1.0), recombinant human protein printed on nitrocellulose slide
Test: peptide or protein array; ProtoArray Human Protein Microarray (v.1.0), 1,800 recombinant human proteins on nitrocellulose slides, blocked and probed with biotin-labeled p16^INK4a; detected with streptavidin-Alexa Fluor 647
Settings: both partners purified

T1 sequence (O00506 whole entry): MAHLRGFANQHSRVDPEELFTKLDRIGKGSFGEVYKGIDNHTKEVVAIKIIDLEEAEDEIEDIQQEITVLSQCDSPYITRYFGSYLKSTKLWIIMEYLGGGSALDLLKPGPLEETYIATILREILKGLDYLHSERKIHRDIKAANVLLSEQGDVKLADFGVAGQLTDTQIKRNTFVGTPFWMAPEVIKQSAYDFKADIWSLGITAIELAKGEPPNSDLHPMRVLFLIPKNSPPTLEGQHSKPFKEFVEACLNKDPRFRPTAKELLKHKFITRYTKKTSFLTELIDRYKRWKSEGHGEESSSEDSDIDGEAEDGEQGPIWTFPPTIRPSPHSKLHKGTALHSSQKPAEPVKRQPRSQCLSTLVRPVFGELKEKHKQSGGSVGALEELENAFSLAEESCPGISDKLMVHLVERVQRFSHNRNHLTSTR

B1: biotin-labeled p16^INK4a (natural protein, UniProt P42771 1-156, looked up)
chain: MEPAAGSSMEPSADWLATAAARGRVEEVRALLEAGALPNAPNSYGRRPIQVMMMGSARVAELLLLHGAEPNCADPATLTRPVHDAAREGFLDTLVVLHRAGARLDVRDAWGRLPVDLAEELGHRDVARYLRAAAGGTRGSNHARIDAAEGPSDIPD
modifications: biotin (biotinylated; site not stated)
notes: probe for the protein microarray
Question: Does B1 bind?
Answer: binds
